# In patent US20250026849A1 (ARCELLX, published 2025):
# T1: CD123 (Homo sapiens (Human), UniProt P26951 19-305, limits assumed)
# T1 construct: The CD123 construct used in the ELISA is not described; also called CD123-Signal
# T1 sequence: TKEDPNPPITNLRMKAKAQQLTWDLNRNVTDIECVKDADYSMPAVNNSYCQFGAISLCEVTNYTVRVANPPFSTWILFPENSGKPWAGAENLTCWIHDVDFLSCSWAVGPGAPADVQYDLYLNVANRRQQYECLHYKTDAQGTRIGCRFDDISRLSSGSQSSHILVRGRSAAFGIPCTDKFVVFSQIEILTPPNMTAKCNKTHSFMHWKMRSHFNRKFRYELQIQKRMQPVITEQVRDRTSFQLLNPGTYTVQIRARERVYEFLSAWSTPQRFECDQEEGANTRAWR
# Target: T1, CD123
# Assay: ELISA
# Design: unit not given here
row,ELISA_avg,Binder
1,3,D domain of SEQ ID NO: 465 (designed binder) MGSWFEFYERLDAINWRLFALGGSEAELAAFEKEIAAFESELQAYKGKGNPEVEALRGEAAAIREDLQAYRHN
2,17,D domain of SEQ ID NO: 423 (designed binder) MGSWSEFYDRLWAIEERLFALGGSEAELAAFEKEIAAFESELQAYKGKGNPEVEYLRYYAAEIREELQAYRHN
3,3.7,D domain of SEQ ID NO: 467 (designed binder) MGSWFYFKDDLADINYMLEALGGSEAELAMFEDDIAGFELTLLKYKGKGNPEVEALRKEAAAIRDELQAYRHN
4,5.1,D domain of SEQ ID NO: 420 (designed binder) MGSWLEFMWRLDAIDERLWALGGSEAELAAFEKEIAAFESELQAYKGKGNPEVELLREMAAAIRDDLQAYRHN
5,6.9,D domain of SEQ ID NO: 406 (designed binder) MGSWFEFNYRLGAIEDRLWALGGSEAELAAFEKEIAAFESELQAYKGKGNPEVEMLRQIAAEIREFLQAYRHN
6,7.6,D domain of SEQ ID NO: 431 (designed binder) MGSWSEFEHRLEAIESRLFALGGSEAELAAFEKEIAAFESELQAYKGKGNPEVEDLRSEAAWIREQLQAYRHN
7,18.6,D domain of SEQ ID NO: 369 (designed binder) MGSWEEFYDRLEAIYNRLGALGGSEAELAAFEKEIAAFESELQAYKGKGNPEVEVLREYAADIREMLQAYRHN
8,24.9,D domain of SEQ ID NO: 463 (designed binder) MGSWYEFDYRLDAIYDRLAALGGSEAELAAFEKEIAAFESELQAYKGKGNPEVERLRKWAANIREELQAYRHN
9,16.9,D domain of SEQ ID NO: 366 (designed binder) MGSWEEFAQRLYAIEWRLYALGGSEAELAAFEKEIAAFESELQAYKGKGNPEVEVLRYVAAQIRYHLQAYRHN
10,5.8,D domain of SEQ ID NO: 385 (designed binder) MGSWDEFGRRLYAIEWRLYALGGSEAELAAFEKEIAAFESELQAYKGKGNPEVEKLREIAAVIRSNLQAYRHN
11,3.6,D domain of SEQ ID NO: 360 (designed binder) MGSWTEFVWRLEAIWDRLDALGGSEAELAAFEKEIAAFESELQAYKGKGNPEVEVLREDAAVIRHFLQAYRHN
12,6.8,D domain of SEQ ID NO: 418 (designed binder) MGSWEEFWERLDAIDTRLWALGGSEAELAAFEKEIAAFESELQAYKGKGNPEVEVLRNDAADIREPLQAYRHN
13,3.3,D domain of SEQ ID NO: 421 (designed binder) MGSWTEFYNRLDAIDQRLWALGGSEAELAAFEKEIAAFESELQAYKGKGNPEVEMLREYAADIRTDLQAYRHN
14,13.7,D domain of SEQ ID NO: 434 (designed binder) MGSWQEFTMRLDAIYNRLETLGGSEAELAAFEKEIAAFESELQAYKGKGNPEVEWLRQSAANIRSELQAYRHN

# More lines, now with the values behind:
row,Binder,ELISA_avg
1,D domain of SEQ ID NO: 410 (designed binder) MGSWVEFWDRLWAIDYRLFALGGSEAELAAFEKEIAAFESELQAYKGKGNPEVEALRDEAAWIREELQAYRHN,3.6
2,D domain of SEQ ID NO: 425 (designed binder) MGSWTEFWERLNAIDERLFALGGSEAELAAFEKEIAAFESELQAYKGKGNPEVEWLRLYAAEIRSELQAYRHN,4
3,D domain of SEQ ID NO: 466 (designed binder) MGSWNEFEDRLDAIWWRLFALGGSEAELAAFEKEIAAFESELQAYKGKGNPEVEALRVEAAFIRTMLQAYRHN,5.1
4,D domain of SEQ ID NO: 417 (designed binder) MGSWDEFEERLFAIDERLWALGGSEAELAAFEKEIAAFESELQAYKGKGNPEVEALRYLAADIREELQAYRHN,5
5,D domain of SEQ ID NO: 424 (designed binder) MGSWSEFEDRLWAIDQRLFALGGSEAELAAFEKEIAAFESELQAYKGKGNPEVEWLRAYAADIRWELQAYRHN,4.2
6,D domain of SEQ ID NO: 411 (designed binder) MGSWVEFVDRLWAIDERLDALGGSEAELAAFEKEIAAFESELQAYKGKGNPEVEFLRTWAAWIREDLQAYRHN,3.2
7,D domain of SEQ ID NO: 427 (designed binder) MGSWWEFENRLWAIEERLEALGGSEAELAAFEKEIAAFESELQAYKGKGNPEVEMLRNYAAEIRWELQAYRHN,5.6
8,D domain of SEQ ID NO: 429 (designed binder) MGSWVEFEERLEAIEERLFALGGSEAELAAFEKEIAAFESELQAYKGKGNPEVEWLRDDAANIRHWLQAYRHN,3.8
9,D domain of SEQ ID NO: 428 (designed binder) MGSWVEFEERLWAIDERLGALGGSEAELAAFEKEIAAFESELQAYKGKGNPEVEWLRDWAADIRWWLQAYRHN,4.1
10,D domain of SEQ ID NO: 398 (designed binder) MGSWHEFDQRLWAIEERLWALGGSEAELAAFEKEIAAFESELQAYKGKGNPEVETLRLYAALIRHDLQAYRHN,3.3
11,D domain of SEQ ID NO: 394 (designed binder) MGSWDEFEQRLIAIEERLFALGGSEAELAAFEKEIAAFESELQAYKGKGNPEVEWLREEAAVIRKYLQAYRHN,5.9
12,D domain of SEQ ID NO: 461 (designed binder) MGSWFEFYDRLDAIYMRLIALGGSEAELAAFEKEIAAFESELQAYKGKGNPEVEVLRRYAANIRAELQAYRHN,13.6
13,D domain of SEQ ID NO: 462 (designed binder) MGSWFEFYMRLDAIYDRLTALGGSEAELAAFEKEIAAFESELQAYKGKGNPEVERLRTFAANIRKELQAYRHN,13.1
14,D domain of SEQ ID NO: 464 (designed binder) MGSWSEFYLRLDAIYDRLDALGGSEAELAAFEKEIAAFESELQAYKGKGNPEVEWLRKTAANIREELQAYRHN,15.7
15,D domain of SEQ ID NO: 468 (designed binder) MGSWHFFKDDLAWIKNELEALGGSEAELAMFEDDIAMFETMLQSYKGKGNPEVEALRKEAAAIRDELQAYRHN,3.2
16,D domain of SEQ ID NO: 469 (designed binder) MGSWHWFKTDLADIKEELEALGGSEAELAMFEDDIAEFEEFLQMYKGKGNPEVEALRKEAAAIRDELQAYRHN,3.5
17,D domain of SEQ ID NO: 433 (designed binder) MGSWFEFWGRLEAIESRLKALGGSEAELAAFEKEIAAFESELQAYKGKGNPEVEELREHAAWIRAYLQAYRHN,4.9
18,D domain of SEQ ID NO: 407 (designed binder) MGSWEEFFTRLDAINERLEALGGSEAELAAFEKEIAAFESELQAYKGKGNPEVEMLRYEAAEIRHMLQAYRHN,3.9
19,D domain of SEQ ID NO: 399 (designed binder) MGSWVEFWDRLDAIEGRLWALGGSEAELAAFEKEIAAFESELQAYKGKGNPEVEDLRWLAAEIRADLQAYRHN,3.5
20,D domain of SEQ ID NO: 432 (designed binder) MGSWFEFWERLDAIEWRLWALGGSEAELAAFEKEIAAFESELQAYKGKGNPEVEELRSTAADIRRYLQAYRHN,3.4
21,D domain of SEQ ID NO: 409 (designed binder) MGSWYEFWGRLDAIEERLWALGGSEAELAAFEKEIAAFESELQAYKGRGNPEVEMLREDAAEIRGQLQAYRHN,5.4
22,D domain of SEQ ID NO: 470 (designed binder) MGSWWLFKDDLAEIKYWLEALGGSEAELAFFEDDIAEFERGLQIYKGKGNPEVEALRKEAAAIRDELQAYRHN,3.3
23,D domain of SEQ ID NO: 395 (designed binder) MGSWVEFDQRLGAIWDRLVALGGSEAELAAFEKEIAAFESELQAYKGKGNPEVEHLRQGAAVIRDDLQAYRHN,5.3
24,D domain of SEQ ID NO: 422 (designed binder) MGSWWEFIWRLEAIEQRLWALGGSEAELAAFEKEIAAFESELQAYKGKGNPEVEVLRSRAADIRTDLQAYRHN,4
25,D domain of SEQ ID NO: 419 (designed binder) MGSWMEFWERLEAIDMRLWALGGSEAELAAFEKEIAAFESELQAYKGKGNPEVEYLRDDAAVIRDDLQAYRHN,4.2
26,D domain of SEQ ID NO: 426 (designed binder) MGSWWEFEERLWAIDYRLHALGGSEAELAAFEKEIAAFESELQAYKGKGNPEVEMLRSWAAEIRALLQAYRHN,4.1
27,D domain of SEQ ID NO: 368 (designed binder) MGSWDEFYYRLEAIEMRLGALGGSEAELAAFEKEIAAFESELQAYKGKGNPEVEELRHYAAQIRHMLQAYRHN,7.2
28,D domain of SEQ ID NO: 367 (designed binder) MGSWDEFAWRLDVIFARLGALGGSEAELAAFEKEIAAFESELQAYKGKGNPEVEELRKNAAQIRDGLQAYRHN,4.6
29,D domain of SEQ ID NO: 408 (designed binder) MGSWYEFSNRLDAIGERLWALGGSEAELAAFEKEIAAFESELQAYKGKGNPEVEILRHQAAEIRWFLQAYRHN,3.9
